# Reference: patent US20060292151A1 (published 2006)
# Target: T1, HCV pseudovirus particles (HCVpp) (hepatitis C virus isolate H77, UniProt P27958 192-383; P27958 384-746)
# T1 construct: A pseudovirus particle (HIV-1 NL4.3 luciferase core) that carries E1/E2 on its envelope; Putative splice acceptor sites changed by conservative mutagenesis; also called HIV-1 particles pseudotyped with HCV E1/E2 envelope glycoproteins
# Assay: HCVpp supernatant on HeLa-SIGN transfectants, cell-bound p24 by ELISA
row,Binder,binding result
1,"L-SIGN-4 (receptor, Expressed whole on the surface of stably transfected HeLa cells; Encodes repeats 1, 3, 4 and 7; also called L-SIGN isoform containing 4 tandem repeats; 4-repeat form of L-SIGN) MSDSKEPRVQQLGLLEEDPTTSGIRLFPRDFQFQQIHGHKSSTGCLGHGALVLQLLSFMLLAGVLVAILVQVSKVPSSLSQEQSEQDAIYQNLTQLKAAVGELSEKSKLQEIYQELTRLKAAVGELPEKSKLQEIYQELTRLKAAVGELPEKSKLQEIYQELTQLKAAVGELPDQSKQQQIYQELTDLKTAFERLCRHCPKDWTFFQGNCYFMSNSQRNWHDSVTACQEVRAQLVVIKTAEEQNFLQLQTSRSNRFSWMGLSDLNQEGTWQWVDGSPLSPSFQRYWNSGEPNNSGNEDCAEFSGSGWNDNRCDVDNYWICKKPAACFRDE",binds
2,"L-SIGN-5 (receptor, Expressed whole on the surface of stably transfected HeLa cells; Encodes repeats 1-4 and 7; also called L-SIGN isoform containing 5 tandem repeats; 5-repeat form of L-SIGN) MSDSKEPRVQQLGLLEEDPTTSGIRLFPRDFQFQQIHGHKSSTGCLGHGALVLQLLSFMLLAGVLVAILVQVSKVPSSLSQEQSEQDAIYQNLTQLKAAVGELSEKSKLQEIYQELTQLKAAVGELPEKSKLQEIYQELTRLKAAVGELPEKSKLQEIYQELTRLKAAVGELPEKSKLQEIYQELTQLKAAVGELPDQSKQQQIYQELTDLKTAFERLCRHCPKDWTFFQGNCYFMSNSQRNWHDSVTACQEVRAQLVVIKTAEEQNFLQLQTSRSNRFSWMGLSDLNQEGTWQWVDGSPLSPSFQRYWNSGEPNNSGNEDCAEFSGSGWNDNRCDVDNYWICKKPAACFRDE",binds
3,"L-SIGN-9 (receptor, Expressed whole on the surface of stably transfected HeLa cells; also called L-SIGN isoform containing 9 tandem repeats; 9-repeat form of L-SIGN) MSDSKEPRVQQLGLLEEDPTTSGIRLFPRDFQFQQIHGHKSSTGCLGHGALVLQLLSFMLLAGVLVAILVQVSKVPSSLSQEQSEQDAIYQNLTQLKAAVGELSEKSKLQEIYQELTQLKAAVGELPEKSKLQEIYQELTRLKAAVGELPEKSKLQEIYQELTRLKAAVGELPEKSKLQEIYQELTRLKAAVGELPEKSKLQEIYQELTRLKAAVGELPEKSKLQEIYQELTRLKAAVGELPEKSKLQEIYQELTELKAAVGELPEKSKLQEIYQELTQLKAAVGELPDQSKQQQIYQELTDLKTAFERLCRHCPKDWTFFQGNCYFMSNSQRNWHDSVTACQEVRAQLVVIKTAEEQNFLQLQTSRSNRFSWMGLSDLNQEGTWQWVDGSPLSPSFQRYWNSGEPNNSGNEDCAEFSGSGWNDNRCDVDNYWICKKPAACFRDE",binds
4,"L-SIGN-3 (receptor, Expressed whole on the surface of stably transfected HeLa cells; Encodes tandem repeats 1, 3 and 7; also called L-SIGN isoform containing 3 tandem repeats; 3-repeat form of L-SIGN) MSDSKEPRVQQLGLLEEDPTTSGIRLFPRDFQFQQIHGHKSSTGCLGHGALVLQLLSFMLLAGVLVAILVQVSKVPSSLSQEQSEQDAIYQNLTQLKAAVGELSEKSKLQEIYQELTRLKAAVGELPEKSKLQEIYQELTQLKAAVGELPDQSKQQQIYQELTDLKTAFERLCRHCPKDWTFFQGNCYFMSNSQRNWHDSVTACQEVRAQLVVIKTAEEQNFLQLQTSRSNRFSWMGLSDLNQEGTWQWVDGSPLSPSFQRYWNSGEPNNSGNEDCAEFSGSGWNDNRCDVDNYWICKKPAACFRDE",binds
